Experimental data taken from the PETadex activity labels (doi:10.1101/2025.08.30.673199).
Where a chain is given by its changes, count along the chain named.

B1: unnamed (protein)
chain: MKAPLFKLAAFTLGVSLSSVALATNPGGGGAGSNPDTGTGFPGVSSFSADGSFATTSGSAGLSCTVFRPSTLGANGLKHPIIVWGNGTTASPSTYSGILEHWASHGFVVIAANTSNAGTGQDMLNCVDYLTTQNNRSTGTYANKLDLNRIGAAGHSQGGGGTIMAGQDYRIKVTAPFQPYTIGLGHNSSSQSNQNGPMFLMTGSADTIASPTLNALPVYNRANVPVFWGELSGASHFEPMGSAGDFRGPSTAWFRYHLMDDASAEDTFYGSNCDLCTDNDWDVRRKGIN
B2: unnamed (protein)
chain: B1 chain with D206A, M240V
B3: unnamed (protein)
chain: B1 chain with M240V
B4: unnamed (protein)
chain: B1 chain with Y180F, M240V
B5: unnamed (protein)
chain: B1 chain with S156A, M240V
B6: unnamed (protein)
chain: B1 chain with T88Y, M240V
B7: unnamed (protein)
chain: B1 chain with N187A, M240V
B8: unnamed (protein)
chain: B1 chain with F237I
B9: unnamed (protein)
chain: B1 chain with M240V, C273A
B10: unnamed (protein)
chain: B1 chain with C126A, M240V
B11: unnamed (protein)
chain: B1 chain with L184A, M240V
B12: unnamed (protein)
chain: B1 chain with H186A, M240V
B13: unnamed (protein)
chain: B1 chain with G185A, M240V
B14: unnamed (protein)
chain: B1 chain with Y180W, N214S, V218I, M240V
B15: unnamed (protein)
chain: B1 chain with Y180W, N214H, V218F, M240V
B16: unnamed (protein)
chain: B1 chain with Q157M, M240V

Substrate: PET
Assay: Proxy for plastic degradation [Released monomer concentration (HPLC/LC-MS) (TPA+MHET+BHET)]
Conditions: pH 9

Row | Protein | Proxy for plastic degradation [µM]
1 | B1 | 870
2 | B2 | 10
3 | B3 | 1020
4 | B4 | 375
5 | B5 | 10
6 | B6 | 345
7 | B7 | 920
8 | B8 | 600
9 | B9 | 10
10 | B10 | 250
11 | B11 | 820
12 | B12 | 120
13 | B13 | 540
14 | B14 | 105
15 | B15 | 85
16 | B16 | 315
